Our source for the Kd values is the Immune Epitope Database (IEDB).

A value given as a limit tells only on which side of the number the result lay.

Assay [1] concerns the target HLA-B*08:01. Put plainly: IEDB peptide-MHC binding, purified MHC/competitive/radioactivity; filed as Kd, often an IC50 or EC50 that approximates it; ≥ and ≤ were set here for values at or beyond the usual limits of such assays.
The target of assay [2] is HLA-A*01:01. The description is as above.
For assay [3], the target named is HLA-A*29:02. The assay is described as above.
Assay [4] deals with HLA-A*11:01. The description is as above. The following applies: source organism: SARS coronavirus Tor2.
The target in assay [5] is HLA-A*68:01. The assay is described as above. The following applies: source organism: SARS coronavirus Tor2.
Assay [6] concerns the target HLA-A*23:01. The description is as above.
Assay [7] addresses HLA-A*03:01. The assay is described as above. The following applies: source organism: SARS coronavirus Tor2.
Assay [8] addresses HLA-A*31:01. Described as above. The following applies: source organism: SARS coronavirus Tor2.
Assay [9] deals with HLA-A*33:01. The assay is described as above. The conditions noted are these: source organism: SARS coronavirus Tor2.
The target in assay [10] is HLA-A*24:02. The assay is described as above.
Assay [11] concerns the target HLA-A*26:01. The description is as above.
Assay [12] deals with HLA-A*30:02. The assay is described as above.
In assay [13] the target is HLA-B*15:01. The description is as above. The following applies: source organism: Vaccinia virus WR.
The target of assay [14] is HLA-A*01:01. Put plainly: IEDB peptide-MHC binding, purified MHC/direct/fluorescence; filed as Kd, often an IC50 or EC50 that approximates it; ≥ and ≤ were set here for values at or beyond the usual limits of such assays. The following applies: source organism: Vibrio cholerae.
The target in assay [15] is HLA-A*24:03. The assay is described as above.
In assay [16] the target is HLA-B*07:02. The description is as above.
Assay [17] has as its target HLA-A*69:01. The assay is described as above.
For assay [18], the target named is HLA-B*40:01. Described as above.
Assay [19] deals with HLA-B*27:05. Described as above.
Assay [20] deals with HLA-B*15:01. The description is as above.
The target in assay [21] is HLA-A*11:01. Described as above.
For assay [22], the target named is HLA-B*44:02. Described as above.
The target of assay [23] is HLA-B*08:01. The description is as above.
Assay [24] concerns the target HLA-A*02:01. The description is as above.
Assay [25] deals with HLA-A*03:01. The description is as above.
For assay [26], the target named is HLA-B*58:01. Described as above.
Assay [27] has as its target HLA-A*26:01. Described as above.
In assay [28] the target is HLA-A*02:03. Nature of the assay: IEDB peptide-MHC binding, purified MHC/competitive/radioactivity; filed as Kd, often an IC50 or EC50 that approximates it; ≥ and ≤ were set here for values at or beyond the usual limits of such assays.
For assay [29], the target named is HLA-A*02:06. Described as above.
The target in assay [30] is HLA-A*02:02. Described as above.
Assay [31] deals with HLA-A*02:01. Nature of the assay: IEDB peptide-MHC binding, purified MHC/competitive/fluorescence; filed as Kd, often an IC50 or EC50 that approximates it; ≥ and ≤ were set here for values at or beyond the usual limits of such assays. The following applies: source organism: Variola virus.
Assay [32] deals with HLA-A*31:01. Put plainly: IEDB peptide-MHC binding, purified MHC/direct/fluorescence; filed as Kd, often an IC50 or EC50 that approximates it; ≥ and ≤ were set here for values at or beyond the usual limits of such assays. The following applies: source organism: Giardia intestinalis.
Setting [33] is: source organism: SARS coronavirus Tor2.
Setting [34] is: source organism: Dengue virus 2 Jamaica/1409/1983.
The mark [35] stands for this setting: source organism: Dengue virus 4 Philippines/H241/1956.
Setting [36] is: source organism: Dengue virus 3 Martinique/1243/1999.
Where [37] appears, read: source organism: Vaccinia virus WR.
Setting [38] is: source organism: Vibrio cholerae.
[39] abbreviates: source organism: Giardia intestinalis.
Setting [40] is: source organism: Mammarenavirus lassaense.

As usually defined, the Kd is the concentration at which binding is half-saturated. Regarding QLAKRFSRG, the Kd in assay [1] (source organism: Dengue virus 3 Singapore/8120/1995) came to 1.28 µM.
As for NTCDGNTFTY, the Kd in assay [2] (setting [33]) was no less than 89.3 µM; in assay [3] (setting [33]), no less than 26 µM; in assay [4], 0.0236 µM; in assay [5], 1.06 µM; in assay [6] (setting [33]), 5.34 µM; in [7], 0.00225 µM. Moreover, the Kd in assay [8] is 0.0334 µM; in [9] it was 13.2 µM; in assay [10] (setting [33]) it was 5.75 µM; in assay [11] (setting [33]) it was no less than 77.9 µM; in [12] (setting [33]) it was no less than 125 µM.
Consider LTIPPTAGIL, for which the Kd in [1] (setting [34]) stood at 1.1 µM.
For IQPQWIAASI, in assay [1] (setting [35]), the dissociation constant (Kd) is 0.858 µM.
As for ERLQRKHGGM, the Kd in assay [1] (setting [36]) was 0.0922 µM.
MLKRERNRV: the Kd in assay [1] (setting [34]) was 0.0529 µM.
On to ANITHFCSF, for which the dissociation constant Kd turned out to be 0.015 µM in [13] and 10.6 µM in [1] (setting [37]).
In the case of SAEMRLLSI, the Kd in assay [1] (setting [37]) was found to be 0.0205 µM.
Regarding SVMPAWQEK, the Kd in assay [14] was no less than 20 µM; in assay [15] (setting [38]), 10.3 µM; in assay [16] (setting [38]), no less than 20 µM; in assay [17] (setting [38]), no less than 20 µM; in assay [18] (setting [38]), no less than 20 µM; in [19] (setting [38]) it was no less than 20 µM. In addition, the Kd is no less than 20 µM in assay [20] (setting [38]); 0.00501 µM in assay [21] (setting [38]); no less than 20 µM in assay [22] (setting [38]); no less than 20 µM in assay [23] (setting [38]); no less than 20 µM in assay [24] (setting [38]); 0.0741 µM in assay [25] (setting [38]). The equilibrium dissociation constant (Kd) in [26] (setting [38]) and in assay [27] (setting [38]) was no less than 20 µM throughout.
Turning to SLLFKTASG, the Kd in assay [1] (setting [36]) was 0.534 µM.
FNKGHFTRL: the Kd in assay [1] (source organism: Vaccinia virus Copenhagen) was determined as 0.0163 µM.
Regarding ILCVPNAVIL, the Kd in assay [1] (setting [34]) was determined as 5.54 µM.
For FVMFGFCYL, the equilibrium dissociation constant (Kd) in assay [1] (setting [37]) was determined as 0.865 µM.
Take NLRCHSAHV: the Kd in assay [28] (setting [37]) came to 0.011 µM; in assay [29] (setting [37]) it was 8.03 µM; in [1] (setting [37]) it was 0.00124 µM; in assay [30] (setting [37]), 0.384 µM.
As to IKTTAKEVAL, the Kd in [1] (setting [35]) was 4.46 µM.
As for NMLRIMASL, the dissociation constant (Kd) in assay [2] (setting [33]) is no less than 26.3 µM; in [3] (setting [33]), no less than 36.9 µM; in assay [28] (setting [33]) it was 0.0375 µM; in assay [29] (setting [33]), 0.05 µM; in [6] (setting [33]), 10.9 µM; in [30] (setting [33]) it was 0.0034 µM. Further, the values for the Kd in assay [10] (setting [33]), in assay [11] (setting [33]) and in assay [12] (setting [33]) were no less than 32.2 µM, 18.2 µM and no less than 100 µM, respectively.
In the case of SLLKNDVPL, in [1] (source organism: Dengue virus 1 Brazil/97-11/1997), the Kd was found to be 0.124 µM.
With HAQRIETWIL, the equilibrium dissociation constant (Kd) in assay [1] (source organism: Dengue virus 2 Peru/IQT2913/1996) was determined as 1.15 µM.
RKLTSRETAL: the Kd in assay [1] (setting [35]) was 0.178 µM.
Consider SMHFYGWSL, for which the Kd in assay [31] was 0.303 µM; in assay [13] it was 0.063 µM; in [1] (setting [37]) it was 0.00285 µM.
Regarding LHRMDLGVPL, the Kd in assay [1] (setting [35]) was 1.01 µM.
As to HRRDLRLASM, the Kd in assay [1] (setting [35]) came to 0.0112 µM.
As to GYTPGQQFY, the Kd in [15] (setting [39]) was 5.42 µM; in assay [16] (setting [39]), no less than 20 µM; in assay [17] (setting [39]), no less than 20 µM; in assay [18] (setting [39]), no less than 20 µM; in [19] (setting [39]) it was no less than 20 µM; in assay [20] (setting [39]) it was no less than 20 µM. The Kd in assay [21] (setting [39]), in assay [22] (setting [39]), in [23] (setting [39]), in [24] (setting [39]), in [25] (setting [39]) and in assay [32] was no less than 20 µM each time. Moreover, the Kd in [26] (setting [39]) and in assay [27] (setting [39]) was no less than 20 µM each time.
On to IYNEKVAGF, for which the Kd is no less than 78.1 µM in assay [2] (setting [33]); 19.8 µM in [3] (setting [33]); 19.7 µM in assay [6] (setting [33]); no less than 26.6 µM in assay [10] (setting [33]); 3.55 µM in [11] (setting [33]); no less than 22.7 µM in [12] (setting [33]).
On to AGFTAGLSY, for which the Kd in [2] (setting [40]) was no less than 21.1 µM; in assay [3] (setting [40]), 0.0604 µM; in assay [6] (setting [40]) it was no less than 69.9 µM; in assay [10] (setting [40]), no less than 77.5 µM; in [11] (setting [40]), no less than 77.9 µM; in assay [12] (setting [40]), 0.149 µM.
TFHLSIPNF displayed a Kd in assay [15] (setting [40]) of 0.0345 µM.
Consider LFCLLNRYF, for which the dissociation constant (Kd) was 3.44 µM in assay [2] (setting [33]); no less than 40.4 µM in assay [3] (setting [33]); no less than 70 µM in assay [6] (setting [33]); no less than 77.6 µM in [10] (setting [33]); 1.14 µM in assay [11] (setting [33]); no less than 81.1 µM in assay [12] (setting [33]).
For WKTWGKAKML, the Kd in assay [1] (setting [34]) stood at 3.8 µM.
In the case of LTKHPNQEY, the Kd in assay [2] (setting [33]) is 17.3 µM; in assay [3] (setting [33]), 3.4 µM; in [6] (setting [33]), no less than 77.8 µM; in assay [10] (setting [33]), no less than 77.6 µM; in assay [11] (setting [33]) it was no less than 34.3 µM; in [12] (setting [33]) it was 0.153 µM.
In turn, KYLPNGDYI had a Kd in [15] (source organism: Vibrio parahaemolyticus) of 0.0129 µM.
